# Assays:
# [1] = target: heteropentameric α1β wild type glycine receptor (rat) (UniProt P07727)
# [2] = target: heteropentameric α1β mutated (α1βY240A) glycine receptor (rat) (UniProt P07727)
substance,measurement,setting,value
Interleukin-1β (from UniProt P01584 117-269) (ligand),"current decay time constant (τ) of glycine (50 μM)-activated currents after perfusion of IL-1β (10 ng/ml); whole-cell patch clamp, transfected HEK293T cells (Figure 4A)",[1],35400 ms
same,"current decay time constant (τ) of glycine (50 μM)-activated currents after perfusion of IL-1β (10 ng/ml); whole-cell patch clamp, transfected HEK293T cells (Figure 4A)",[2],3370 ms

# Source: paper PMC7973117
